Results reported in publication PMC2757048.
Like-named read-outs stand apart in the source and are kept apart here.

What was measured:
[1] = biological target: paclitaxel-stabilized microtubules (UniProt P02550); assay: co-sedimentation
[2] = biological target: paclitaxel-stabilized microtubules (UniProt P02550); assay: co-sedimentation; remark: listed apart in the source
[3] = biological target: paclitaxel-stabilized microtubules (UniProt P02550)
[4] = biological target: paclitaxel-stabilized microtubules (UniProt P02550); assay: co-sedimentation; remark: listed apart in the source

Sequence of UniProt P02550 (P02550 whole entry, chain 1 of 2): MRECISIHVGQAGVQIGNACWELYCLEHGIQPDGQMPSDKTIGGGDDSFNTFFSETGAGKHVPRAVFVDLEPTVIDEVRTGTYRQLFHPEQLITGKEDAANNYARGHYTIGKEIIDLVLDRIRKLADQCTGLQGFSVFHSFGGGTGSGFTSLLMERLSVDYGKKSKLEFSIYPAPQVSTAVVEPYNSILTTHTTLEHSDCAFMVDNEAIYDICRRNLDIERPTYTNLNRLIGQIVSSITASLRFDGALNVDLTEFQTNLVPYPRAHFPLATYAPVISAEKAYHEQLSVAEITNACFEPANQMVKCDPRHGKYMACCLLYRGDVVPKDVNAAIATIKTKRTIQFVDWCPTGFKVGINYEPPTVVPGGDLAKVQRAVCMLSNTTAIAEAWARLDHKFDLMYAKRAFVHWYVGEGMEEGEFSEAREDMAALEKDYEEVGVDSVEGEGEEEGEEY
Sequence of UniProt P02550 (P02554 whole entry, chain 2 of 2, further chain): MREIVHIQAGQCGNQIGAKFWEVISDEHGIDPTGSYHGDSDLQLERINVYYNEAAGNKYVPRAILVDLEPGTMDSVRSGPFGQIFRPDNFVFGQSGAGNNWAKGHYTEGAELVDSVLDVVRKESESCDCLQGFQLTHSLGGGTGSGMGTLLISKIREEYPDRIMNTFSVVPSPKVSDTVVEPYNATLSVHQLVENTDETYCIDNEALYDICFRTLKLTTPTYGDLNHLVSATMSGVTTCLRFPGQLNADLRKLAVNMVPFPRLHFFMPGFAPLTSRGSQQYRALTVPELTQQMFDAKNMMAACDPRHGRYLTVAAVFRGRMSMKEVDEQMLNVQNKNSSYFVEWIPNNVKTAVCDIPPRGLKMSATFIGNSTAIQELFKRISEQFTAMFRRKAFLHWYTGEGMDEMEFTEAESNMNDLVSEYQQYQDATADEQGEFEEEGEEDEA

Substance: HFG380 L3339C I3517C double-Cys mutant, oxidized (stalk coiled coil locked in the −β registry), P34036 1388-4730
- Kd [1]: > 10 µM
- Kd [2]: > 10 µM

Substance: HFG380 L3339C I3517C double-Cys mutant, untreated, P34036 1388-4730
- Kd [2]: > 10 µM
- Km(MT) of MT-activated steady-state ATPase, untreated dynein, 1 mM ATP, 25 °C [3]: 26.6 µM

Substance: HFG380 L3339C Q3510C double-Cys mutant, oxidized (stalk coiled coil locked in the +β registry), P34036 1388-4730
- Kd [1]: > 10 µM
- Kd [2]: > 10 µM

Substance: HFG380 L3339C Q3510C double-Cys mutant, untreated, P34036 1388-4730
- Kd [2]: > 10 µM
- Kd [4]: 0.61 µM
- Km(MT) of MT-activated steady-state ATPase, untreated dynein, 1 mM ATP, 25 °C [3]: 40.5 µM

Substance: HFG380 Q3340C I3513C double-Cys mutant, untreated, P34036 1388-4730
- Kd [2]: > 10 µM
- Kd [4]: 0.65 µM
- Km(MT) of MT-activated steady-state ATPase, untreated dynein, 1 mM ATP, 25 °C [3]: 14.5 µM
